How the values were obtained:
[1] = target: 5730469M10Rik_IPI:IPI00187272.3 (mouse); experiment: GST pull-down, LC-MS/MS
[2] = target: Acad8_IPI:IPI00274222.2 (mouse) (UniProt Q9D7B6); experiment: GST pull-down, LC-MS/MS
[3] = target: Chchd3_IPI:IPI00133562.1 (mouse) (UniProt Q9CRB9); experiment: GST pull-down, LC-MS/MS
[4] = target: Chchd4_IPI:IPI00124389.1 (mouse) (UniProt Q8VEA4); experiment: GST pull-down, LC-MS/MS
[5] = target: Cisd3_IPI:IPI00345740.4 (mouse) (UniProt B1AR13); experiment: GST pull-down, LC-MS/MS
Cisd3_IPI:IPI00345740.4 (mouse), sequence (B1AR13 whole entry): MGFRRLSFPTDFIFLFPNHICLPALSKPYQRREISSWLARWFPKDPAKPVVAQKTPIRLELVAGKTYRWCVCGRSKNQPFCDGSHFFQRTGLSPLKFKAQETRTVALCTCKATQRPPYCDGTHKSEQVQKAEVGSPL

[6] = target: Cyc1_IPI:IPI00132728.2 (mouse) (UniProt Q9D0M3); experiment: GST pull-down, LC-MS/MS
Cyc1_IPI:IPI00132728.2 (mouse), sequence (Q9D0M3 85-325 limits assumed): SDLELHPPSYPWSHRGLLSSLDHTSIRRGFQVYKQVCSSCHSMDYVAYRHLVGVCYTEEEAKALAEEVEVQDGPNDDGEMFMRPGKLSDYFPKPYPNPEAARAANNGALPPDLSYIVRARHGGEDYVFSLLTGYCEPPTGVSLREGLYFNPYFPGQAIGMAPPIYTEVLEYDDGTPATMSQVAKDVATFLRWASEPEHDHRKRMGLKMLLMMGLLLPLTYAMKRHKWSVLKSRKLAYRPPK

[7] = target: Dsp_IPI:IPI00553419.3 (mouse) (UniProt E9Q557); experiment: GST pull-down, LC-MS/MS
[8] = target: Etfa_IPI:IPI00116753.4 (mouse) (UniProt Q99LC5); experiment: GST pull-down, LC-MS/MS
Etfa_IPI:IPI00116753.4 (mouse), sequence (Q99LC5 20-333 limits assumed): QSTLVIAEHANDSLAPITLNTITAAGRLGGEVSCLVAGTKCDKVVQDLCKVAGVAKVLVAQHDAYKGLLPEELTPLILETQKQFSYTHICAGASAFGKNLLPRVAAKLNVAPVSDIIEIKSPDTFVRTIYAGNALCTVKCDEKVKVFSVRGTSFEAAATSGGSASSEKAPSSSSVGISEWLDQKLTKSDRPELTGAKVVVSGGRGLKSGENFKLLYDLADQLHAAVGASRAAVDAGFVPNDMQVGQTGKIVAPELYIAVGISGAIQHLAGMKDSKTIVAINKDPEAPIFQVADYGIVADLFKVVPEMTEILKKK

[9] = target: Fahd1_IPI:IPI00468850.1 (mouse) (UniProt Q8R0F8); experiment: GST pull-down, LC-MS/MS
Fahd1_IPI:IPI00468850.1 (mouse), sequence (Q8R0F8 25-221 limits assumed): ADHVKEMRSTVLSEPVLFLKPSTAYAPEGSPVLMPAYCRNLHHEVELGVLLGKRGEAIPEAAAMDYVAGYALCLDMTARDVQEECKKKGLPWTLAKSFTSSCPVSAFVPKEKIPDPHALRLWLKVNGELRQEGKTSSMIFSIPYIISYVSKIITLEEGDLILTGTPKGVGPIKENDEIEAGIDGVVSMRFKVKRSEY

[10] = target: LOC100044454_IPI:IPI00135284.1 (mouse); experiment: GST pull-down, LC-MS/MS
[11] = target: Pptc7_IPI:IPI00421081.3 (mouse) (UniProt Q6NVE9); experiment: GST pull-down, LC-MS/MS
Pptc7_IPI:IPI00421081.3 (mouse), sequence (Q6NVE9 75-310 limits assumed): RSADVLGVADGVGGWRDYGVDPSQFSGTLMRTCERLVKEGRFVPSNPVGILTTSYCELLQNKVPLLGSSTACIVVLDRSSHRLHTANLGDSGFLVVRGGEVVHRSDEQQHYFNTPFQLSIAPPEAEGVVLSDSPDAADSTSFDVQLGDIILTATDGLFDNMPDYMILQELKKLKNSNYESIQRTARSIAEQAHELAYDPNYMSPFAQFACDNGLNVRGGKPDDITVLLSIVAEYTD

[12] = target: Rab2a_IPI:IPI00137227.1 (mouse) (UniProt P53994); experiment: GST pull-down, LC-MS/MS
Rab2a_IPI:IPI00137227.1 (mouse), sequence (P53994 2-212 limits assumed): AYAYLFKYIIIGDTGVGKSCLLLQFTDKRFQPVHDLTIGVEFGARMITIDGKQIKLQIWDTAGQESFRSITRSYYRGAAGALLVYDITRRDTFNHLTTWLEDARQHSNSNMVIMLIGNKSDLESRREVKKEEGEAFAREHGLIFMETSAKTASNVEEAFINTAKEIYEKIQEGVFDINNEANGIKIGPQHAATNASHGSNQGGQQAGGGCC

[13] = target: Rtn1_IPI:IPI00395193.1 (mouse) (UniProt Q8K0T0); experiment: GST pull-down, LC-MS/MS
Rtn1_IPI:IPI00395193.1 (mouse), sequence (Q8K0T0 whole entry): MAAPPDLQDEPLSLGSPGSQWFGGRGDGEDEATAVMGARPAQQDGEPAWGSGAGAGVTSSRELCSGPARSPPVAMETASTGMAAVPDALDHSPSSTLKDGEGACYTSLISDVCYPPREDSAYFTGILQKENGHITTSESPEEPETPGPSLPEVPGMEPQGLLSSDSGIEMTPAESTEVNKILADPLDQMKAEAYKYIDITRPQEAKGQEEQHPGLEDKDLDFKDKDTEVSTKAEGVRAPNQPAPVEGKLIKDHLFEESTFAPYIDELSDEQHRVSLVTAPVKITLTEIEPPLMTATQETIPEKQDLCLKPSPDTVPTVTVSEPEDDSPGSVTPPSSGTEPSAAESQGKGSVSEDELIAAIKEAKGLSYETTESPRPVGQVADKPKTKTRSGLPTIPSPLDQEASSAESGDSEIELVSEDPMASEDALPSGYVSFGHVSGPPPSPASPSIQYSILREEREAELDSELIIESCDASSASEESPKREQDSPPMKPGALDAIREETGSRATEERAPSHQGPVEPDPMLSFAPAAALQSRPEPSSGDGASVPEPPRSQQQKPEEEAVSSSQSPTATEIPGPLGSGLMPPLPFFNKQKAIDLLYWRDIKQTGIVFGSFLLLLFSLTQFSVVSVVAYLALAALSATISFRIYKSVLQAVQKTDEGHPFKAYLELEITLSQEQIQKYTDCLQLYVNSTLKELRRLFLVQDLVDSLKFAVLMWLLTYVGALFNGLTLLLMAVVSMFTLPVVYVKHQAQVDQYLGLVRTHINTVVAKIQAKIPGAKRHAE

[14] = target: Stoml2_IPI:IPI00115117.1 (mouse) (UniProt Q99JB2); experiment: GST pull-down, LC-MS/MS
Stoml2_IPI:IPI00115117.1 (mouse), sequence (Q99JB2 29-353 limits assumed): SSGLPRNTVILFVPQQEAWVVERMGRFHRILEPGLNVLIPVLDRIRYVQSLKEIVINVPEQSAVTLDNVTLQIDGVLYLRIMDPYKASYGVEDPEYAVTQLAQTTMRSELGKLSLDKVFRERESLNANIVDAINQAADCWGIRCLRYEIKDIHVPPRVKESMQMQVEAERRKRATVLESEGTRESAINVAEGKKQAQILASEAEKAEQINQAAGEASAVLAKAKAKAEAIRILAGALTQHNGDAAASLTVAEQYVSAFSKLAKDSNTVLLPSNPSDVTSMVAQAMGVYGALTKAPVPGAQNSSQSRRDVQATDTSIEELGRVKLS

[15] = target: Tim50 (endogenous, mouse) (mouse) (UniProt Q9D880); experiment: GST pull-down, LC-MS/MS
Tim50 (endogenous, mouse) (mouse), sequence (Q9D880 22-353 limits assumed): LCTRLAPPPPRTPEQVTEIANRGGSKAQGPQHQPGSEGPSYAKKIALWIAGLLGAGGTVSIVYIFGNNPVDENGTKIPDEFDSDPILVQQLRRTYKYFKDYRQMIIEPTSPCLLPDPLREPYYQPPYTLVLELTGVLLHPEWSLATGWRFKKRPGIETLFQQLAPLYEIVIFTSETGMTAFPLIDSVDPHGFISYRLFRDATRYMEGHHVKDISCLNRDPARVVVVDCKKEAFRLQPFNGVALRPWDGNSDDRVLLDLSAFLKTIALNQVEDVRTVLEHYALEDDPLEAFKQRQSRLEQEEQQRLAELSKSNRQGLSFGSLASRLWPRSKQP

[16] = target: Tpi1_IPI:IPI00467833.6 (mouse) (UniProt P17751); experiment: GST pull-down, LC-MS/MS
Tpi1_IPI:IPI00467833.6 (mouse), sequence (P17751 2-249 limits assumed): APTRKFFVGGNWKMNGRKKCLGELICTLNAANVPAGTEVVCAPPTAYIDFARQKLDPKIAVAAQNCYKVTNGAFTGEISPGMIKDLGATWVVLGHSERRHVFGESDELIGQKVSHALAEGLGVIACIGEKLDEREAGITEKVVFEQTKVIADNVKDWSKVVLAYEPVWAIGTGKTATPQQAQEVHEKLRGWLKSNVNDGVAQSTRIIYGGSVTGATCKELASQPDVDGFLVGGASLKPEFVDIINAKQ

[17] = target: TIM23 complex (mitochondrial inner membrane translocase, mouse forebrain mitochondria) (mouse) (UniProt Q9WTQ8); experiment: cell-based or functional assay

Chchd3_IPI:IPI00133562.1 (mouse), sequence (Q9CRB9 2-227 limits assumed): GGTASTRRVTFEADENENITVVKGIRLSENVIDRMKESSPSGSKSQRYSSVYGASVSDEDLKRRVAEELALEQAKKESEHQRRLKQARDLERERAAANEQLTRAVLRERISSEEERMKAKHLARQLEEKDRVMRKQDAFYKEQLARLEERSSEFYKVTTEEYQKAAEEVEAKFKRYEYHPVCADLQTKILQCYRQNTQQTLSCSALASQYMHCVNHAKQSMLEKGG
Acad8_IPI:IPI00274222.2 (mouse), sequence (Q9D7B6 21-413 limits assumed): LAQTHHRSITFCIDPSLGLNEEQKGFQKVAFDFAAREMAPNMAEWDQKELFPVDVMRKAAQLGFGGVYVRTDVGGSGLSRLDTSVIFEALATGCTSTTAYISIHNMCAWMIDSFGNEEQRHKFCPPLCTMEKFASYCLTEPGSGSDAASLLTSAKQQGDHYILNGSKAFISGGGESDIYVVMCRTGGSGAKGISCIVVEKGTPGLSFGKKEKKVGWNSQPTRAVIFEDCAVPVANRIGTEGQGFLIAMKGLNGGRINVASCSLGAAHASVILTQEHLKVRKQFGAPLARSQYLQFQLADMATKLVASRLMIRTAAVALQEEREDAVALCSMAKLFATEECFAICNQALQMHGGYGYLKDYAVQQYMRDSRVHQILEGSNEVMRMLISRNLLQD
Chchd4_IPI:IPI00124389.1 (mouse), sequence (Q8VEA4 whole entry): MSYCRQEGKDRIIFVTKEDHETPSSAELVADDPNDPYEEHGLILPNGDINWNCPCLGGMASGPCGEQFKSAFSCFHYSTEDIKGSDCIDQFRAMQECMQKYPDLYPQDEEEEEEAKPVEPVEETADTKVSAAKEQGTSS
5730469M10Rik_IPI:IPI00187272.3 (mouse), sequence (Q9CYH2 whole entry): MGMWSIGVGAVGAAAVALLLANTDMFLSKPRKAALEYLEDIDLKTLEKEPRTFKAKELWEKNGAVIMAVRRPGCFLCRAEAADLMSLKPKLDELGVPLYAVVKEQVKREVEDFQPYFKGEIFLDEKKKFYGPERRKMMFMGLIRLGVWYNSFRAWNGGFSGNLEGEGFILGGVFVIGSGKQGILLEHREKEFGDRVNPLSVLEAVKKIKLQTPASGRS

No. of total peptides [1]: 1 peptides
No. of unique peptides [1]: 1 peptides
No. of total peptides [2]: 1 peptides
No. of unique peptides [2]: 1 peptides
No. of total peptides [3]: 2 peptides
No. of unique peptides [3]: 2 peptides
No. of total peptides [4]: 1 peptides
No. of unique peptides [4]: 1 peptides
No. of total peptides [5]: 1 peptides
No. of unique peptides [5]: 1 peptides
No. of total peptides [6]: 1 peptides
No. of unique peptides [6]: 1 peptides
No. of total peptides [7]: 4 peptides
No. of unique peptides [7]: 4 peptides
No. of total peptides [8]: 4 peptides
No. of unique peptides [8]: 3 peptides
No. of total peptides [9]: 1 peptides
No. of unique peptides [9]: 1 peptides
No. of total peptides [10]: 3 peptides
No. of unique peptides [10]: 3 peptides
No. of total peptides [11]: 1 peptides
No. of unique peptides [11]: 1 peptides
No. of total peptides [12]: 1 peptides
No. of unique peptides [12]: 1 peptides
No. of total peptides [13]: 1 peptides
No. of unique peptides [13]: 1 peptides
No. of total peptides [14]: 1 peptides
No. of unique peptides [14]: 1 peptides
No. of total peptides [15]: 3 peptides
No. of unique peptides [15]: 3 peptides
No. of total peptides [16]: 1 peptides
No. of unique peptides [16]: 1 peptides
reduction of pOTC import into wild-type mouse forebrain mitochondria after incubation with 3 µM GST-Httex1-97Q, compared to control GST [17]: 50%
reduction of pOTC import into wild-type mouse forebrain mitochondria after incubation with 10 µM GST-Httex1-97Q, compared to control GST [17]: 73%
Substance: GST-Httex1-97Q (from UniProt P08515 1-218; P42858 1-88)
